In patent publication US20260070975A1 one finds Measuring Fluorescent Intensity (MFI) and Percent Positive for c-Kit on M-07e cells data, which are given here for one substance.

This experiment deals with c-Kit expressed on the cell surface of M-07e cells (human) (UniProt P10721). Kind of experiment: flow cytometry on M-07e cells. (In general: Flow cytometry measures light scatter and fluorescence of single cells or particles in a stream.)
c-Kit expressed on the cell surface of M-07e cells (human), sequence (P10721 26-976): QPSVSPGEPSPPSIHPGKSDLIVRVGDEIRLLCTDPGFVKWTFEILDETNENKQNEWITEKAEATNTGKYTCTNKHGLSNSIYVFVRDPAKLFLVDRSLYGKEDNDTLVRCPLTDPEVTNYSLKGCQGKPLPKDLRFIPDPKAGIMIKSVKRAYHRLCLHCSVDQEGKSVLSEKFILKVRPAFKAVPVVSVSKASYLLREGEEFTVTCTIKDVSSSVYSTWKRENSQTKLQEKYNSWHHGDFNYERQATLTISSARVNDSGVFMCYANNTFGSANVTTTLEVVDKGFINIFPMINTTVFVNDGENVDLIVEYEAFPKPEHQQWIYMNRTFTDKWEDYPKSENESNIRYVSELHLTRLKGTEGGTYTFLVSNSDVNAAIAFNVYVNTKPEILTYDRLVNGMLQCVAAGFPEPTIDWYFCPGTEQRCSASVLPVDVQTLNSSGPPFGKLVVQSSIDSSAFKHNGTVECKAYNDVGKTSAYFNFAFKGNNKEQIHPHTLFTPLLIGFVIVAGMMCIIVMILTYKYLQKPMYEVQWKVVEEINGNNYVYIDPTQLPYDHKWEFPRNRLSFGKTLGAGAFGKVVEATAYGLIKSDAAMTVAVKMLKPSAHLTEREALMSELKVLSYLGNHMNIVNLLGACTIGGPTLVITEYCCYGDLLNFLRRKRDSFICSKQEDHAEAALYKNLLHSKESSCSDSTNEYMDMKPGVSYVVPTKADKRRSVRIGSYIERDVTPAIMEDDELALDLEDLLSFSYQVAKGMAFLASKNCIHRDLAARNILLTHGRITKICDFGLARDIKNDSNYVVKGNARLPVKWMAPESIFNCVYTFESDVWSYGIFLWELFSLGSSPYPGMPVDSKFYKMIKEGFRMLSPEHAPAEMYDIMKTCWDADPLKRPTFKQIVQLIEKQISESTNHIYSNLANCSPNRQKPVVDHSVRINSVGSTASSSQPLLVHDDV

As for hIgG1 control (antibody), the Measuring Fluorescent Intensity (MFI) worked out at 85 MFI and the Percent Positive for c-Kit on M-07e cells is 2.3%.
